In publication PMC6748581:
One block for each molecule: values may come before it.

Experiments:
Assay in all cases: SPR
[1] = molecular target: Anti-IL-13 IgG1 ΔK-C242 IgA2m1 Fc Dimer (human) (UniProt P01591)
[2] = molecular target: Anti-IL-13 IgG1 ΔK-P221 IgA2m1 Fc Dimer (human) (UniProt P01591)
[3] = molecular target: anti-mIL-13 IgA1 Dimer (human) (UniProt P01591)
[4] = molecular target: anti-mIL-13 IgA1 Monomer (human)
[5] = molecular target: anti-mIL-13 IgA2m1 Dimer (human) (UniProt P01591)
[6] = molecular target: anti-mIL-13 IgA2m1 Monomer (human)
[7] = molecular target: anti-mIL-13 IgA2m1 P221R Dimer (human) (UniProt P01591)
[8] = molecular target: anti-mIL-13 IgA2m1 P221R Monomer (human)
[9] = molecular target: anti-mIL-13 IgA2m2 Dimer (human) (UniProt P01591)
[10] = molecular target: anti-mIL-13 IgA2m2 Monomer (human)
[11] = molecular target: anti-mIL-13 IgA2m2 Tetramer (human) (UniProt P01591)
[12] = molecular target: anti-mIL-13 human IgG1 (human)
[13] = molecular target: Anti-HER2 IgA2m2 Polymer Aglycosylated (human) (UniProt P01591)

Kd [1]: 938 nM
Kd [2]: 1070 nM
Kd [3]: 369 nM
Kd [4]: 425 nM
Kd [5]: 499 nM
Kd [6]: 429 nM
Kd [7]: 462 nM
Kd [8]: 443 nM
Kd [9]: 597 nM
Kd [10]: 455 nM
Kd [11]: 533 nM
Molecule: human Fc alpha receptor 1 (from UniProt P24071)

Kd [1]: 9900 nM
Kd [2]: 8400 nM
Kd [12]: 9.8 µM
Molecule: human FcRn co-expressed with human beta-2 microglobulin (from UniProt P55899;P61769) (complex)

Kd [13]: 0.55 nM
Molecule: mouse polymeric immunoglobulin receptor (from UniProt O70570)

Kd [1]: 7400 nM
Kd [2]: 6800 nM
Kd [12]: 7.8 µM
Molecule: mouse FcRn co-expressed with mouse beta-2 microglobulin (from UniProt Q61559;P01887) (complex)

Kd [13]: 0.72 nM
Kd [1]: 4.41 nM
Kd [2]: 7.67 nM
Kd [3]: 8.8 nM
Kd [5]: 5.05 nM
Kd [7]: 15.5 nM
Kd [9]: 13.9 nM
Kd [11]: 1.93 nM
Molecule: human polymeric immunoglobulin receptor (from UniProt P01833)

Kd [1]: 3.32 nM
Kd [2]: 3.32 nM
Kd [3]: 2.66 nM
Kd [5]: 2.54 nM
Kd [7]: 5.59 nM
Kd [9]: 2.45 nM
Kd [11]: 0.69 nM
B1: mouse polymeric immunoglobulin receptor (receptor)
chain: KSPIFGPQEVSSIEGDSVSITCYYPDTSVNRHTRKYWCRQGASGMCTTLISSNGYLSKEYSGRANLINFPENNTFVINIEQLTQDDTGSYKCGLGTSNRGLSFDVSLEVSQVPELPSDTHVYTKDIGRNVTIECPFKRENAPSKKSLCKKTNQSCELVIDSTEKVNPSYIGRAKLFMKGTDLTVFYVNISHLTHNDAGLYICQAGEGPSADKKNVDLQVLAPEPELLYKDLRSSVTFECDLGREVANEAKYLCRMNKETCDVIINTLGKRDPDFEGRILITPKDDNGRFSVLITGLRKEDAGHYQCGAHSSGLPQEGWPIQTWQLFVNEESTIPNRRSVVKGVTGGSVAIACPYNPKESSSLKYWCRWEGDGNGHCPVLVGTQAQVQEEYEGRLALFDQPGNGTYTVILNQLTTEDAGFYWCLTNGDSRWRTTIELQVAEATREPNLEVTPQNATAVLGETFTVSCHYPCKFYSQEKYWCKWSNKGCHILPSHDEGARQSSVSCDQSSQLVSMTLNPVSKEDEGWYWCGVKQGQTYGETTAIYIAVEERTRGSSHVNPTDANARAKVALEEEVVDSSISEKENKAIPNPGPFANEREIQNVGDQAQENRASGDAGSADGQSRSSSSK
